Test results reported in PMC8249653.

Substrate: C[C@H](O)C(=O)O
Assay: cells, lysate or membranes
Details: pH 7.3, 37 °C, 2 min uptake, 1-100 µM L-lactate, labelled compound (14C tracer spike)

B1: Slc16a13 (SLC16A13/MCT13) (Mus musculus) (protein)
chain: MVRRAEPPDGGWGWMVVLSAFFQSALVFGVLRSFGVFFVEFVAAFEEQAARVSWIASIGIAVQQFGSPIGSALSTKLGPRPVVMTGGILAALGMLLASFATSLTHLYLSIGLLSGSGWALTFTPTMACLSRYFSQRRSLAMGLALTGVGISSFAFAPLFQWLINNYAWRGALLLVSALSLHLMACGALLRPLSLTEDAAVGGPGAQITSLLRHGPFLRYTAALTLINTGFFIPYVHLVAHLQDLGWDPLPAAFLLSVAAVSDLVGRVASGWLGDAVPGPVARLLMLWTTLTGVSLALFPVAQASSTLVVLAVAYGFTSGALTPVAFSVLPELVGTGRIYCGMGLVQMIESIGGLLGAPLSGYLRDVTGNYTASFVVAGAFLLAGSGVLLTLPHFFSCISVSTSRPQDLVIEASDTKIPLPKEEGLGEN
In the case of B1, the Km is reported as 0.47 ± 0.35 µM.
